Measurements taken from patent publication US20140206847A1 (PANASONIC, published 2014).

Biological target: T1, Troponin I derived from human myocardium (human, UniProt P19429 2-210)
T1 construct: Bought protein, fixed on a CM5 chip at approximately 500 RU; also called Troponin I (purchased from Funakoshi)
Experiment: SPR, Biacore T100; troponin I fixed on CM5 chip, measured similarly to the mutant protein; column head 'Association Rate Ka(M^-1)'
Procedure: Using an intermolecular interaction analyzer Biacore T100 (purchased from GE health care company), the association rate of the mutant protein was measured in accordance with the manual attached to the intermolecular interaction analyzer Biacore T100.
More particularly, Troponin I (purchased from Funakoshi) derived from human myocardium having approximately 500 RU (Resonance Unit) was fixed on a CM5 chip (purchased from GE health care company). This CM5 chip was set in the Biacore T100. Then, aqueous solutions (concentration: 100 nM, 50 nM, 25 nM, 12.5 nM, and 6.25 nM, volume: 150 microliters) containing the purified mutant protein was flowed through the Biacore T100 to measure the association rate of the mutant protein.

T1 sequence (P19429 2-210 limits assumed): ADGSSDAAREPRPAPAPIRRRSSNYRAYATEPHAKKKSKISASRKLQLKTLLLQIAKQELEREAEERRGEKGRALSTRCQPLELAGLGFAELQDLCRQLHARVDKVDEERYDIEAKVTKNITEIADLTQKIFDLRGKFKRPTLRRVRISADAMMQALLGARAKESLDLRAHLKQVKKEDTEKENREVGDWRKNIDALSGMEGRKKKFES

Ka: 5.11e+09 M⁻¹
B1: First mutant scFv antibody fragment (scFv)
scFv: DVVLTQSPLTLSVTIGQPASISCKSSQSLLDSDGKTYLNWLLQRPGQSPKRLIYLVSKLDSGVPDRFTGSGSGTDFTLKISRVEAEDLGVYYCWQGTHFPLTFGAGTKLEIKRGGGGSGGGGSGGGGSQLQLQQSGAELVRSGASVKLSCTASGFNIKDYYMNWVKQRPEQGLEWIGWIDPANGDTAYAPRFQVKADMTADKDSDTAYLQLSSLTSEDTAVYYCNADLPMDQWGQGTSVTVSSAAALESFNRNEC
notes: also called first mutant scFv antibody fragment 51; mutant first scFv antibody fragment
